This test concerns the target OMCP. In words: method not stated.

This is an account of results in patent publication US20210284706A1 (published 2021).

B1: human NKG2D (Example 21) (receptor)
chain: NSLFNQEVQIPLTESYCGPCPKNWICYKNNCYQFFDESKNWYESQASCMSQNASLLKVYSKEDQDLLKLVKSYHWMGLVHIPTNGSWQWEDGSILSPNLLTIIEMQKGDCALYASSFKGYIENCSTPNTYICMQRTV
What is called Kd is the constant that tells how readily two partners part at equilibrium. A high value points to weaker binding. For B1, binding was characterised by a dissociation constant (Kd) of 0.1 nM.
